These results are taken from IntAct's records for PubMed 23918659.

The labels stand for the following.
B1: Vacuolar protein sorting-associated protein 33B (Homo sapiens), Q9H267 (parent)
chain: MAFPHRPDAPELPDFSMLKRLARDQLIYLLEQLPGKKDLFIEADLMSPLDRIANVSILKQHEVDKLYKVENKPALSSNEQLCFLVRPRIKNMRYIASLVNADKLAGRTRKYKVIFSPQKFYACEMVLEEEGIYGDVSCDEWAFSLLPLDVDLLSMELPEFFRDYFLEGDQRWINTVAQALHLLSTLYGPFPNCYGIGRCAKMAYELWRNLEEEEDGETKGRRPEIGHIFLLDRDVDFVTALCSQVVYEGLVDDTFRIKCGSVDFGPEVTSSDKSLKVLLNAEDKVFNEIRNEHFSNVFGFLSQKARNLQAQYDRRRGMDIKQMKNFVSQELKGLKQEHRLLSLHIGACESIMKKKTKQDFQELIKTEHALLEGFNIRESTSYIEEHIDRQVSPIESLRLMCLLSITENGLIPKDYRSLKTQYLQSYGPEHLLTFSNLRRAGLLTEQAPGDTLTAVESKVSKLVTDKAAGKITDAFSSLAKRSNFRAISKKLNLIPRVDGEYDLKVPRDMAYVFGGAYVPLSCRIIEQVLERRSWQGLDEVVRLLNCSDFAFTDMTKEDKASSESLRLILVVFLGGCTFSEISALRFLGREKGYRFIFLTTAVTNSARLMEAMSEVKA
partner: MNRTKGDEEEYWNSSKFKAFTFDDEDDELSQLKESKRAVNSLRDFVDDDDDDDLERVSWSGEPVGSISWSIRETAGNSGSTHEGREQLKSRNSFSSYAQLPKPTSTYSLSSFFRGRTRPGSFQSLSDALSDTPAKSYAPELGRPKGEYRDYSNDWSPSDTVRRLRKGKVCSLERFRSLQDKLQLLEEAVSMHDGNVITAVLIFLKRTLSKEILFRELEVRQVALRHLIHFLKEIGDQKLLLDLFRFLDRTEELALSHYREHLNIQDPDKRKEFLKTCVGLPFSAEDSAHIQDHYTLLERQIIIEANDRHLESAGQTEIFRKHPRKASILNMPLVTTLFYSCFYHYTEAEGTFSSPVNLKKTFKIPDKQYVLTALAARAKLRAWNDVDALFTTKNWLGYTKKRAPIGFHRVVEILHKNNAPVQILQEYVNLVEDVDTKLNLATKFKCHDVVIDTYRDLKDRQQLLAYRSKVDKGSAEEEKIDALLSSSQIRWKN

In the first experiment the parent is B1. To be noted: with spe39_human VIPAS39, Q9H9C1.
Consider D234H, for which the “effect of a mutation on the interaction” value is reported as “decreasing interaction”.

As to D252E, the “effect of a mutation on the interaction” value is reported as “decreasing interaction”.

For the variant S243F, the “effect of a mutation on the interaction” value is “decreasing interaction”.

In a further experiment the parent is B1. To be noted: with spe39_human VIPAS39, Q9H9C1. The source holds these as a separate data set.
As to V235A;D236A;F237A, the “effect of a mutation on the interaction” value is listed as “disrupting interaction”.

Regarding D232A;R233A;D234A, the “effect of a mutation on the interaction” value was “disrupting interaction”.

Regarding V251A;D252A;D253A, the “effect of a mutation on the interaction” value is recorded as “disrupting interaction”.

In the next experiment the parent is B1. To be noted: with spe39_human VIPAS39, Q9H9C1. The source holds these as a separate data set.
As to L30P, the “effect of a mutation on the interaction” value is recorded as “decreasing interaction”.

In the case of G249V, the “effect of a mutation on the interaction” value was “decreasing interaction”.

The variants in the next experiment derive from B1. To be noted: with spe39_human VIPAS39, Q9H9C1. The source holds these as a separate data set.
In the case of L30P, the “effect of a mutation on the interaction” value was “disrupting interaction”.
